Data as given in patent US20110300138A1 (published 2011).
One block for each molecule: values may come before it.

Experiments:
[1] = molecular target: thyroid stimulating hormone receptor (TSHR), full length human TSHR (human) (UniProt P16473); experiment: TSH-biotin competition ELISA, TSHR coated wells; 1 µg/mL in HBD serum
[2] = molecular target: thyroid stimulating hormone receptor (TSHR), full length human TSHR (human) (UniProt P16473); experiment: TSH-biotin competition ELISA, TSHR coated wells; 0.1 µg/mL in HBD serum
[3] = molecular target: thyroid stimulating hormone receptor (TSHR), full length human TSHR (human) (UniProt P16473); experiment: TSH-biotin competition ELISA, TSHR coated wells; 1 µg/mL in assay buffer
[4] = molecular target: thyroid stimulating hormone receptor (TSHR), full length human TSHR (human) (UniProt P16473); experiment: TSH-biotin competition ELISA, TSHR coated wells; 0.1 µg/mL in assay buffer
[5] = molecular target: TSH receptor (TSHR), full length human, coated on tubes (human) (UniProt P16473); experiment: inhibition of 125I-K1-18 IgG binding to TSHR coated tubes; competitor 125I-K1-18 IgG; sample at 1 µg/mL in assay buffer
[6] = molecular target: TSH receptor (full length human TSHR) (human) (UniProt P16473); experiment: competition ELISA: inhibition of M22 Fab-peroxidase (competitor) binding to TSHR coated wells; test sample at 1 µg/mL diluted in assay buffer
[7] = molecular target: TSH receptor (full length human TSHR) (human) (UniProt P16473); experiment: competition ELISA: inhibition of M22 Fab-peroxidase (competitor) binding to TSHR coated wells; test sample at 0.1 µg/mL diluted in HBD serum pool
[8] = molecular target: TSH receptor (full length human TSHR) coated on tubes (human) (UniProt P16473); experiment: 125I-TSH binding inhibition read against NIBSC 90/672; 10 ng/mL, in serum
[9] = molecular target: TSH receptor (full length human TSHR) coated on tubes (human) (UniProt P16473); experiment: 125I-TSH binding inhibition read against NIBSC 90/672; mean over 10, 30 and 100 ng/mL, in assay buffer
[10] = molecular target: TSHR with Lys129 mutated to Ala, expressed in CHO cells (human) (UniProt P16473); experiment: cell-based or functional assay
[11] = molecular target: wild type TSHR (human TSH receptor) expressed in CHO cells (human) (UniProt P16473); experiment: cell-based or functional assay
[12] = molecular target: TSHR (thyroid stimulating hormone receptor), full length human (human) (UniProt P16473); experiment: negative control; competitor ^125I-K1-70 IgG, TSHR coated tubes; 0.1 µg/mL in HBD
[13] = molecular target: thyroid stimulating hormone receptor (TSHR), full length human TSHR (human) (UniProt P16473); experiment: TSH-biotin competition ELISA, TSHR coated wells; negative control, 10 µg/mL in HBD serum
[14] = molecular target: TSHR (thyroid stimulating hormone receptor), full length human (human) (UniProt P16473); experiment: negative control; competitor ^125I-K1-70 IgG, TSHR coated tubes; 1 µg/mL in assay buffer
[15] = molecular target: human thyroid stimulating hormone receptor (TSHR), full length (human) (UniProt P16473); experiment: 125I-K1-70 Fab (competitor) binding to TSHR coated tubes; negative control MAb 0.001 µg/mL in assay buffer
[16] = molecular target: TSH receptor (TSHR), full length human, coated on tubes (human) (UniProt P16473); experiment: inhibition of 125I-TSH binding to TSHR coated tubes; 0.01 µg/mL, diluted in HBD serum pool; mean of duplicates
[17] = molecular target: TSHR (full length) coated on tubes (human) (UniProt P16473); experiment: inhibition of 125I-K1-18 Fab (competitor) binding to TSHR coated tubes; negative control 0.1 µg/mL in HBD serum
[18] = molecular target: TSH receptor (TSHR) coated on tubes (human) (UniProt P16473); experiment: inhibition of 125I-K1-70 IgG binding to TSHR coated tubes; negative control 1 µg/mL in HBD serum pool; duplicate determination
[19] = molecular target: human thyroid stimulating hormone receptor (TSHR), full length (human) (UniProt P16473); experiment: 125I-K1-18 Fab competition, TSHR coated tubes; 0.01 µg/mL in HBD
[20] = molecular target: TSH receptor (TSHR), full length human, coated on tubes (human) (UniProt P16473); experiment: inhibition of 125I-TSH binding to TSHR coated tubes; 0.1 µg/mL, diluted in HBD serum pool
[21] = molecular target: TSH receptor (TSHR) coated on tubes (human) (UniProt P16473); experiment: inhibition of 125I-K1-70 IgG binding to TSHR coated tubes; sample 10 µg/mL in HBD serum pool
[22] = molecular target: thyroid stimulating hormone receptor (full length human TSHR) (human) (UniProt P16473); experiment: ELISA, inhibition of TSH-biotin binding to TSHR coated wells; 10 µg/mL, diluted in assay buffer
[23] = molecular target: thyroid stimulating hormone receptor (full length human TSHR) (human) (UniProt P16473); experiment: ELISA, inhibition of TSH-biotin binding to TSHR coated wells; 1 µg/mL, diluted in HBD serum pool
[24] = molecular target: thyroid stimulating hormone receptor (full length human TSHR) (human) (UniProt P16473); experiment: ELISA, inhibition of TSH-biotin binding to TSHR coated wells; 0.1 µg/mL, diluted in HBD serum pool
[25] = molecular target: TSH receptor (TSHR), full length human, coated on tubes (human) (UniProt P16473); experiment: inhibition of 125I-K1-18 IgG (competitor) binding to TSHR coated tubes; test sample at 100 µg/mL in HBD serum pool
[26] = molecular target: thyroid stimulating hormone receptor (full length human TSHR) (human) (UniProt P16473); experiment: ELISA: inhibition of M22 Fab-peroxidase (competitor) binding to TSHR coated wells; 0.01 µg/mL, diluted in HBD serum pool

Molecule: 9D33 IgG (antibody)
Inhibition of binding (%) [1]: 76%
Inhibition of binding (%) [2]: 39%
Inhibition of binding (%) [3]: 81.8%
Inhibition of binding (%) [4]: 59.7%
Inhibition of binding (%) [5]: 63%
Inhibition of binding (%) [6]: 60.1%
Inhibition of binding (%) [7]: 24.1%

Molecule: M22 IgG (antibody)
units/L [8]: 1.5 units/L
units/mg [8]: 150 units/mg
mean units/mg [9]: 266 units/mg

Molecule: 5B3 IgG (antibody)
Inhibition of binding (%) [12]: -3.6%
Inhibition of binding (%) [13]: -1.6%
Inhibition of binding (%) [14]: 4.2%
Inhibition of binding (%) [15]: -1.8%
Inhibition of binding (%) [16]: 2.6%
Inhibition of binding (%) [17]: -8.3%
Inhibition of binding (%) [18]: 0%

More lines, now with the values ahead:

Cyclic AMP produced, mutated TSHR, TSH 0.01 ng/mL [10]: 2.69 pmol/mL
Cyclic AMP produced, mutated TSHR, TSH 0.03 ng/mL [10]: 5.34 pmol/mL
Cyclic AMP produced, mutated TSHR, TSH 0.1 ng/mL [10]: 12.7 pmol/mL
Cyclic AMP produced, mutated TSHR, TSH 0.3 ng/mL [10]: 29 pmol/mL
Cyclic AMP produced, mutated TSHR, TSH 1 ng/mL [10]: 40.8 pmol/mL
Cyclic AMP produced, mutated TSHR, TSH 3 ng/mL [10]: 48.5 pmol/mL
Mutated/Wild type (%) of cyclic AMP produced, TSH 0.01 ng/mL [10]: 134%
Mutated/Wild type (%) of cyclic AMP produced, TSH 0.03 ng/mL [10]: 161%
Mutated/Wild type (%) of cyclic AMP produced, TSH 0.1 ng/mL [10]: 131%
Mutated/Wild type (%) of cyclic AMP produced, TSH 0.3 ng/mL [10]: 111%
Mutated/Wild type (%) of cyclic AMP produced, TSH 1 ng/mL [10]: 88%
Mutated/wild type (%) of cyclic AMP produced; TSH 3 ng/mL [10]: 101%
Cyclic AMP produced, wild type TSHR, TSH 0.01 ng/mL [11]: 2.01 pmol/mL
Cyclic AMP produced, wild type TSHR, TSH 0.03 ng/mL [11]: 3.32 pmol/mL
Cyclic AMP produced, wild type TSHR, TSH 0.1 ng/mL [11]: 9.69 pmol/mL
Cyclic AMP produced, wild type TSHR, TSH 0.3 ng/mL [11]: 26.1 pmol/mL
Cyclic AMP produced, wild type TSHR, TSH 1 ng/mL [11]: 46.3 pmol/mL
Cyclic AMP produced, wild type TSHR, TSH 3 ng/mL [11]: 48.1 pmol/mL
Molecule: TSH (ligand)

Inhibition of binding (%) [19]: 5.7%
Inhibition of binding (%) [20]: 7%
Inhibition of binding (%) [21]: 22.7%
Inhibition of binding (%) [22]: 37.8%
Inhibition of binding (%) [23]: 28.5%
Inhibition of binding (%) [24]: 10.4%
Inhibition of binding (%) [25]: 57.7%
Inhibition of binding (%) [26]: 0.9%
B1: 5C9 IgG (antibody, from another filing, V domains shown)
VH: EVQLVESGGGLIQPGGSLRLSCAASGFTVSSNYMSWVRQAPGKGLEWVSVTYSGGSTSYADSVKGRFTISRDNSKNTLYLQMNSLRAEDTAVYYCARGGRYCSSISCYARSGCDYWGQGTLVTVSS
VL: AIQMTQSPSSLSASVGDRVTITCRASQSISNYLNWYQQKPGKAPKLLIYAASSLQSGVPSRFSGSGSGTDFTLTISSLQPEDFATYYCQQSYSSPSTTFGQGTKLEIK
